The text below walks through data of article PMC11850223.

Numbering of substitutions follows the chain as printed.

Series [1] concerns the target Hera_1–419_K51Q (ATPase-deficient variant) (Thermus thermophilus). Description: SEC.
Series [2] concerns the target Hera_1–510_K51Q (ATPase-deficient variant) (Thermus thermophilus). As to the kind of experiment: SEC. A general note: In gel filtration, larger molecules generally elute earlier.
The target of series [3] is T1, trans-heterodimer Hera_1-419/Hera_370-510 (Thermus thermophilus, UniProt O07897;O07897 1-419;370-510).
T1 sequence 1: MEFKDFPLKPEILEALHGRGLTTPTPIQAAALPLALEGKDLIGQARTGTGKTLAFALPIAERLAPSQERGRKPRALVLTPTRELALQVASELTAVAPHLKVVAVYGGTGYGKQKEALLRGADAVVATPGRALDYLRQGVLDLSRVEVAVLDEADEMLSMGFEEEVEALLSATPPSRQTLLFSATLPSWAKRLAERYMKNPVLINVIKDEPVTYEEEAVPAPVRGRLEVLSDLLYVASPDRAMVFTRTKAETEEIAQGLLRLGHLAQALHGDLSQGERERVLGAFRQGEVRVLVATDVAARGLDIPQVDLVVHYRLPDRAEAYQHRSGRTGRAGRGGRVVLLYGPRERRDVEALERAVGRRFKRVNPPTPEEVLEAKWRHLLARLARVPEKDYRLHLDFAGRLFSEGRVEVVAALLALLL
T1 sequence 2: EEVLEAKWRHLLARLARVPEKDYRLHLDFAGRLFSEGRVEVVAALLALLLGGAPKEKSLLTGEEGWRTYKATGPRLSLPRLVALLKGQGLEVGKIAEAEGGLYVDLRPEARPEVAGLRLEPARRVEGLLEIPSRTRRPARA
Description: stopped-flow fluorescence.

The target in series [4] is T2, Hera (Thermus thermophilus, UniProt O07897 1-510).
T2 sequence: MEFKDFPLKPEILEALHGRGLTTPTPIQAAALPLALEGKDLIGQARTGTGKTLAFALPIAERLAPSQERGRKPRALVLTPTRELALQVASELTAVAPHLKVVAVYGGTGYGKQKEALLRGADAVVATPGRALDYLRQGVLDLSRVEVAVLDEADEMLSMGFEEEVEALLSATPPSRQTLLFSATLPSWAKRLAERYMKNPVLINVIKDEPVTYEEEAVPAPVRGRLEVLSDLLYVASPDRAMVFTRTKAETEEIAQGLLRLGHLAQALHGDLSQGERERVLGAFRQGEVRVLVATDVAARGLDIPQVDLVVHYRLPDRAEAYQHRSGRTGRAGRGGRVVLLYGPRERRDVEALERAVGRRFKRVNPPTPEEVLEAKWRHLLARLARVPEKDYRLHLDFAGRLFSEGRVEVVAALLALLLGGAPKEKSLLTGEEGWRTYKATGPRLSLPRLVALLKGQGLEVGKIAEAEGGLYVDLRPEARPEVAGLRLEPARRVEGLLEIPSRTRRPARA
As to the kind of experiment: stopped-flow fluorescence.

For series [5], the target named is T3, Hera_K51Q (Thermus thermophilus, UniProt O07897 1-510, K51Q).
T3 sequence: T2 sequence with K51Q
As to the kind of experiment: stopped-flow fluorescence.

Series [6] deals with T4, Hera/Hera_K51Q heterodimer (Thermus thermophilus, UniProt O07897;O07897 1-510;1-510, K51Q).
T4 sequence 1: T2 sequence
T4 sequence 2: T2 sequence with K51Q
As to the kind of experiment: stopped-flow fluorescence.

In series [7] the target is T2, Hera. As to the kind of experiment: fluorescence anisotropy. In general terms: Polarisation of emitted light reports the rotation of a fluorescent probe.
Series [8] addresses T3, Hera_K51Q. As to the kind of experiment: fluorescence anisotropy.
Series [9] concerns the target T4, Hera/Hera_K51Q heterodimer. As to the kind of experiment: fluorescence anisotropy.
For series [10], the target named is T5, cis-heterodimer Hera/Hera_208-419 (Thermus thermophilus, UniProt O07897;O07897 1-510;208-419).
T5 sequence 1: T2 sequence
T5 sequence 2: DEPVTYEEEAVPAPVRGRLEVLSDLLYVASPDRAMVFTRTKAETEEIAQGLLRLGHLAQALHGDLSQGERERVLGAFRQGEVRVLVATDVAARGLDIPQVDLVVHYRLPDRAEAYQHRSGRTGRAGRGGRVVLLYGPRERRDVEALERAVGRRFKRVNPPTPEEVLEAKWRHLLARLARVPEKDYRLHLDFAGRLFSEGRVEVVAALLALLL
Description: fluorescence anisotropy.

The target in series [11] is T6, Hera/Hera_1-419 heterodimer (Thermus thermophilus, UniProt O07897;O07897 1-510;1-419).
T6 sequence 1: T2 sequence
T6 sequence 2: T1 sequence 1
As to the kind of experiment: fluorescence anisotropy.

Series [12] deals with T5, cis-heterodimer Hera/Hera_208-419. Description: stopped-flow fluorescence.
Series [13] has as its target T1, trans-heterodimer …. As to the kind of experiment: fluorescence anisotropy.
Series [14] addresses T7, Hera_E115C_E227C (Thermus thermophilus, UniProt O07897 1-510, E115C;E227C).
T7 sequence: T2 sequence with E115C, E227C
As to the kind of experiment: single-molecule FRET.

Series [15] addresses T8, Hera_1-419_E115C_E227C/Hera_1-419 heterodimer (Thermus thermophilus, UniProt O07897;O07897 1-419;1-419, E115C;E227C).
T8 sequence 1: T1 sequence 1 with E115C, E227C
T8 sequence 2: T1 sequence 1
Description: single-molecule FRET.

Series [16] deals with T9, Hera/Hera_1-419 heterodimer, dye-labelled in trans (Thermus thermophilus, UniProt O07897;O07897 1-510;1-419, E115C;E227C).
T9 sequence 1: T2 sequence
T9 sequence 2: T1 sequence 1 with E115C, E227C
Description: single-molecule FRET.

Series [17] concerns the target T10, Hera/Hera_1-419 heterodimer, dye-labelled in cis (Thermus thermophilus, UniProt O07897;O07897 1-510;1-419, E115C;E227C).
T10 sequence 1: T2 sequence with E115C, E227C
T10 sequence 2: T1 sequence 1
Description: single-molecule FRET.

For “Hera_1–419_K51Q (ATPase-deficient variant) (domain or fragment)”, in series [1], the stoichiometry N came out at 2.
The molecule “Hera_1–510_K51Q (ATPase-deficient variant) (enzyme)” registered a stoichiometry N in series [2] of 2.
As for GCAGGUCCCAAGGGUUGGGCUGUUCGCCCAUU (structured_RNA) [fl-32mer], the Kd in series [3] came out at 7.3 ± 1 µM; in series [4] it was 0.49 ± 0.22 µM; in [5], 1.5 ± 0.7 µM; in [6], 0.13 ± 0.07 µM; in series [7], 0.06 ± 0.01 µM; in [8], 0.17 ± 0.02 µM. The Kd amounted to 0.08 ± 0.02 µM in series [9] and 0.126 ± 0.009 µM in series [10].

B1: fl-32/9mer (structured_RNA)
RNA 1: GCAGGUCCCAAGGGUUGGGCUGUUCGCCCAUU
RNA 2: UUGGGACCU
Regarding B1, the Kd worked out at 3 ± 1 µM in series [4]; 2 ± 0.3 µM in series [7]; 3 ± 0.3 µM in series [11]; 2.1 ± 0.4 µM in series [8]; 2.5 ± 0.4 µM in [9]; 1.8 ± 0.8 µM in series [12]. In addition, the Kd was 1.4 ± 0.5 µM in series [10] and 16 ± 6 µM in [13].
As to GCAGGUCCCAAGGGUUGGGCUGUUCGCCCAUU (structured_RNA) [32mer (smFRET)], the binding result in series [14], in series [15], in series [16] and in series [17] was “binds” throughout.

A word on the stoichiometry N: it is the number of molecules, sites or subunits per partner or assembly. As a reminder, the Kd is the constant that tells how readily two partners part at equilibrium. A low value points to tighter binding.
